From patent US20250026813A1 (published 2025) come the findings set out here.

Where a chain is given by its changes, count along the chain named.

B1: YANG-1302 (antibody, V domains shown)
VH: QVQLVESGGGAVQPGRSLRLSCRASGFTFSSFGMNWVRQVPGKGLVWVAGIWYDGRNKYYADSVKGRFTISRENSKNMLYLQMNSLRAEDTAVYYCARDQDSGFDGNWFGPWGQGTMVTVSS
VL: SYELTQPPSMSVSPGQTASITCSGDNLGDKYVCWYQQRPGQSPVMVIFQDSTRPSGIPERFSGSNSGNTATLTISGTQAMDEADYYCQAWDSNTAVFGGGTKLTVL
B2: YANG-1301 (antibody, V domains shown)
VH: QVQLVESGGGVVQPGRSLRLSCAASGFTFSSYGMHWVRQAPGKGLEWVAVIWYDGSNKFYADSVKGRFTISRDNSKNTLYLQMNSLKAEDTAVYYCARDTWIGESDTSWLDPWGQGTLVTVSS
VL: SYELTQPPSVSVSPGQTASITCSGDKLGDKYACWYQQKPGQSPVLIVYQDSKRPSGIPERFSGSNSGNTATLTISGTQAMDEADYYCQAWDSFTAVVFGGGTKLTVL
B3: YANG-1401 (antibody, V domains shown)
VH: QVHLQESGPGLVKPSGTLSLTCAVSGGSFSQINWWSWVRQSPGKGLEWIGEIYHSGSTNYNPSLKSRVTMSVDKSKNQFSLALNSVTAADTAVYYCARGYYGDNWFDSWGQGTLVTVSS
VL: DIQMTQSPSSLSASIGDRVTITCRASQGISNWLVWYQQKPEKAPKSLIYAASSLQSGVPSRFSGSGSGTDFTLTISSLHPEDFATYYCQQYSDYPLTFGGGTKVEIK
B4: YANG-2111 (antibody, V domains shown)
VH: GVQLVESGGGLVQPGRSLRLSCAASGFTFDDYALHWVRQVPGKGLEWVSSISWNSDDLGYADSVEGRFTISRDNAKNSLYLQMSSLRTEDTALYYCVKDTRAHYDILAGYRGLDSWGQGTLVTVSS
VL: DIVMTQSPLSLPVTPGEPASISCRSTQSLLHSNGYNFLDWYLQKPGQSPQLLIYLGSNRASGVPDRFSGSGSGTDFSLKISRVEAEDIGIYYCIQGLQTPITFGQGTRLEIK
B5: YANG-1112 (antibody, V domains shown)
VH: QITLKESGPTLVKPTQTLTLTCTFSGFSLSTGGVAVGWIRQPPGKALEWLAIIYWDDDKRYSPSLKSRLTITKDTSKNQVVLTMTNMDPVDTATYYCAHWGKDSFDIWGQGTMVTVSS
VL: SYELTQPPSVSVSPGQTARITCSGDALPRKYAYWYQQKSGQAPVLVIYEDNNRPSGIPERFSGSSSGTTATLTVSGAQVEDEADYYCYSTDTSGYVVFGGGTKLTVL
B6: YANG-2107 (antibody, V domains shown)
VH: QVQLQESGPGLVKPSGTLSLTCAVSGGSIRSSNWWIWVRQSPGKGLEWIGEIYHGGNTNYNPSLKSRVTLSVDKSKNQFSLKLSSVTAADTAVYYCARALYDIGGVFDIWGQGTMVTVSS
VL: QSALTQPASVSGSPGQSISISCTGTSSDIGGYNYVSWYQQHPGKAPKLMIYDVSERPSGVSNRFSGSKSGNTASLTISGLQAEDEGDYYCCSYAANSNVVFGGGTKLSVL
B7: YANG-2108 (antibody, V domains shown)
VH: B6 VH with L11Q, S41P, N61S, T69S, L70I, Q78H, K82N, S84T, I103V
VL: B6 VL with S19T, T25S, I29V
B8: YANG-2203 (antibody, V domains shown)
VH: QVQLVQSGAEVKQPGASVKVSCRASGYALTSFYVHWVRQAPGQGLEWMGIIKPSGGDTIYAQNLQGRVTMTRDTSTNTFYVELSSLRSEDTALYYCAISGNTRAFEIWGQGTMVTVSL
VL: QSVLTQPPSVSAAPGQKVTISCSGSSSNIGNNFVSWYQQLPGMVPKLLIYANNKRPSGIPDRFSGSRSGTSATLGITGLQTGDEADYYCGTWDSSRSAVLFGGGTKMTVL
B9: YANG-2205 (antibody, V domains shown)
VH: QIQLVQSGAEVKKPGASVKFSCKTSGYTFTSYYMVWVRQAPGQGLEWMGIIKPSGGNTIYAQKFQGRVTMTRDTSTNTVYMDLSSLRSEDTAVYYCARTGDRAFDVWGHGTMITVSS
VL: B8 VL with L40F, M43T, V44A, A51D, R67K, R96L, S97G, V99G, L100V, M107L
B10: YANG-2204 (antibody, V domains shown)
VH: B9 VH with I2M, S31N, S84T, H109Q, I113V
VL: B8 VL with F33Y, M43T, V44A, A51D, R67K, R96L, S97G, V99G, L100V, M107L
B11: YANG-2207 (antibody, V domains shown)
VH: B9 VH with I2M, F20I, S31N, M81L, D101N, I113V
VL: B8 VL with L40F, M43T, V44A, A51D, R67K, R96L, S97G, V99G, L100V, M107L
B12: YANG-2206 (antibody, V domains shown)
VH: B9 VH with F20L, Y60F, S84N, I113V
VL: QSVLTQPPSVSAAPGQKVTISCSGSSSNIGNNYVSWYQQFPGTAPKLLIYDNNKRPSGIPDRFSGSKSGTSATLGITGLQTGDEADYYCGTWDSSLGAGVFGGGTKVTVL
B13: YANG-2208 (antibody, V domains shown)
VH: B9 VH with K12R, K19R, T28I, S31N, S84N, S85N, Y95F, H109Q, I113V
VL: B12 VL with V10M, S25N, Y33F, Q38R, G97S, V107L
B14: IMPI-055 (antibody, V domains shown)
VH: QVQLVQSGAEVKKPGASVKVSCKASGYTFTSYDINWVRQATGQGLEWMGWMNPNSGNTGYAQKFQGRVTMTRDTSINTAYMELSSLRSEDTAVYFCARGGRYCSDVTCYSGEPFDYWGQGTLVTVSS
VL: EIMLTQSPDFQSVTPKEKVTITCRASQSIGSSLHWYQQKPDQSPKLLIKFASQSISGVPSRFSGSGSGTDFTLTINSLEAEDAAAYYCHQSSSLPHTFGPGTKVEIK
B15: IMPI-047 (antibody, V domains shown)
VH: EVQLVESGGGLIQPGGSLRLSCAASGFTVSSNYMNWVRQAPGKGLEWVSVIYSGGSTYYADSVKGRFTISRDNSKNTLYLQMNSLRTEDTAVYYCARDLVAYGMDVWGQGTTVTVSS
VL: DIQLTQSPSFLSASVGDRVTITCWASQGISSYLAWYQQKPGKAPKVLIYAASTLQSGVPSRFSGSGSGTEFTLTISSLQPEDFATYYCQLLNSNPLTFGGGTKVEIK
B16: IMPI-017 (antibody, V domains shown)
VH: B15 VH with S25A, F27L, A40V, T87A, V100G, A101T, Y102L
VL: B15 VL with S31T, V46L, L90Q, N94Y, P95L, L96P, G100Q
B17: IMPI-037 (antibody, V domains shown)
VH: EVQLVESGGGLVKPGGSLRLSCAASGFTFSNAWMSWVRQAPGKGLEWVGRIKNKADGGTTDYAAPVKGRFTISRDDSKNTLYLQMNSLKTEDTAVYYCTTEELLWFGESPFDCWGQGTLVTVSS
VL: B15 VL with S30N, V46L, A84T, L90Q, L91F, S93D, N94Y, L96R, G100P
B18: IMPI-006 (antibody, V domains shown)
VH: QLQLQESGPGLVKPSETLSLTCTVSGGSISNSNYYWGWIRQPPGKGLEWIGSIYYSGRTYYNPSLKSRVTISVDTSKNQFSLKLSSVTAADTAVYYCARMGLLWFGEFYGMDVWGQGTTVTVSS
VL: B3 VL with I15V, N31S, V34A, A50D, S56R, H79Q, T85S, S92N, D93S, K103R
B19: IMPI-059 (antibody, V domains shown)
VH: EVQLVESGGGLIQPGGSLRLSCAASGFTVSSIYMSWVRQAPGKGLEWVSIIYSRGSTDYADSVKGRFTISRDISKNTLYLQMNSLRAEDTAVYYCARDGTMVRGVHAFDIWGQGTMVTVSS
VL: DIQMTQSPPSLSASIGDRVTITCQASQDISNYLNWYQQKPGKAPKLLIYDASNLETGVPSRFSGSGSGTDFTLTISNLQPEDIVTYYCQQYDNLPSSFGQGTKLEIK
B20: IMPI-027 (antibody, V domains shown)
VH: QVQLQESGPGLVKPSQTLSLTCTVSGGSISSYGYYWNWIRQHPGKGLEWIGYIYYSGSTYYNPSLKSRVTISVDTSKNQLSLRLNSVSAADTAVYYCARDFGGNSNYFDYWGQGTLVTVSS
VL: AIQLTQSPSSLSASVGDRVTITCRTSQGISSALAWYQQKPGKAPKLLIYDASSLESGVPSRFSGSGSGTDFTLTISSLQPEDFATYYCQQFNSYPLTFGGGTKVEIK
B21: IMPI-022 (antibody, V domains shown)
VH: EVQLVESGGGLVQPGRSLRLSCAASGFTFDDYAMHWVRQAPGKGLEWVSGITWNSGSIGYADSVKGRFTISRDNAKNSLYLHMNSLRVEDTALYYCAKDLQGDYYYYGVDVWGQGTTVTVSS
VL: B20 VL with T25A, I48L, E55V, G66R, N92I, K103R
B22: IMPI-033 (antibody, V domains shown)
VH: B20 VH with N37S, I71M
VL: B20 VL with T25A, K45N, Y94S
B23: IMPI-032 (antibody, V domains shown)
VH: QVQLQESGPGLVKPSGTLSLTCAVSGGSISSNKWWSWVRQPPGKGLEWIGEIDHSGSTMYNPSLKSRVTISVDKSKNQFSLKLNSVTAADTAVYYCTGEGYNWNYWGQGTRVTVSS
VL: DVVMTQSPLSLPVTLGQTASISCRSSQSLLYTDGNTYLSWFQQRPGQSPRRLIYKVSKWESGVPDRFSGSGSGTDFTLKISRVEAEDVGIYYCMQGTHWPLTFGGGTKVEIK

The first test addresses SARS-CoV-2 spike protein bearing furin mutation and truncation in retention sequence, on pseudovirus (SARS-CoV-2, UniProt P0DTC2 14-1255). Nature of the test: cell-based or functional assay.
As to B1, the “pseudovirus neutralisation IC50” value turned out to be 0.23 nM. Take B2: the “pseudovirus neutralisation IC50” value came out at 0.52 nM. Consider B3, for which the “pseudovirus neutralisation IC50” value worked out at 0.53 nM. As to B4, the “pseudovirus neutralisation IC50” value came out at 1.33 nM. Consider B5, for which the “pseudovirus neutralisation IC50” value came to 0.52 nM. As for B6, the “pseudovirus neutralisation IC50” value stood at 0.3 nM. As to B7, the “pseudovirus neutralisation IC50” value turned out to be 0.27 nM. Turning to B8, the “pseudovirus neutralisation IC50” value came to 5.45 nM. With B9, the “pseudovirus neutralisation IC50” value is 3.35 nM. As to B10, the “pseudovirus neutralisation IC50” value was determined as 3.3 nM. Same read-out and setting: the figure for B11 is 2.59 nM; for B12 it is 3.96 nM; for B13 it is 4.68 nM.

In the next test the target is full-length stabilised spike trimer protein of SARS-CoV-2 virus (in-house, soluble ECD with trimeris (SARS-CoV-2, UniProt P0DTC2 14-1208; P10104 458-484).
Assay: not given
As for B14, the “HTRF deltaF” value stood at 551 deltaF. The same measure, in the same setting: the figure for B15 is 1410 deltaF. Take B16: the “HTRF deltaF” value came to 550 deltaF. In the case of B17, the “HTRF deltaF” value was determined as 557 deltaF. Still for that read-out and setting: next, B18: 1060 deltaF; B19: 403 deltaF.

For B20, the “HTRF deltaF” value came out at 800 deltaF. On to B21, for which the “HTRF deltaF” value was 483 deltaF. With B22, the “HTRF deltaF” value was determined as 884 deltaF. Still for that read-out and setting: the figure for B23 is 218 deltaF.

The target of another test is T1, S1 subunit of the SARS-CoV-2 spike protein (Sino Biological 40591-V08H), His tag (SARS-CoV-2, UniProt P0DTC2 16-685).
T1 construct: domain: S1 subunit
Assay: not given
Consider B14, for which the “HTRF deltaF” value amounted to 1030 deltaF. As for B15, the “HTRF deltaF” value came to 2250 deltaF. For B16, the “HTRF deltaF” value came to 752 deltaF. As to B17, the “HTRF deltaF” value was 626 deltaF. With B18, the “HTRF deltaF” value turned out to be 885 deltaF.

For the molecule B19, the “HTRF deltaF” value was 569 deltaF.

Turning to B20, the “HTRF deltaF” value was 755 deltaF. B21: the “HTRF deltaF” value is -5.8 deltaF.

B22: the “HTRF deltaF” value amounted to 929 deltaF.

Consider B23, for which the “HTRF deltaF” value is -8.9 deltaF.
